Data published in US20190049459A1 (TOKYO INSTITUTE OF TECHNOLOGY, published 2019).

Experiments:
ANT2-HA = biological target: T1, ANT2-HA (human, UniProt P05141 1-298); test: co-expression of ANT2-HA and FLAG-tagged uORF44 in HEK 293 T cells, immunoprecipitation by one tag, western blot by the other tag
T1 construct: Co-expressed with FLAG-tagged uORF44 in HEK 293 T cells; not shown: HA tag fused to the subtype
T1 sequence (looked up): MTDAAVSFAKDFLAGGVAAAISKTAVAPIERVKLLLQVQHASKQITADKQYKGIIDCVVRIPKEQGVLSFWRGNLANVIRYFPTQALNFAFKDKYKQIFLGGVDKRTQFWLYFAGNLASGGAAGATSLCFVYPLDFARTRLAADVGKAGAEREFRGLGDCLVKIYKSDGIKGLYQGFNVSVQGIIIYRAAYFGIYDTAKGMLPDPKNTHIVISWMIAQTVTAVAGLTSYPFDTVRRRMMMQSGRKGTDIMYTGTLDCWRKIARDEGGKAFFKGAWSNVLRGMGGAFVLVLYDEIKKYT
Protocol: The expression vector was transfected into HEK 293 T cells cultured in a 10 cm culture dish using Opt-MEM (Life Technologies) and FuGENE-HD (Promega). After 48 hours of transfection, the cells were washed with PBS and dissolved using 1 mL of lysis buffer (20 m Tris-HCl pH 7.5, 150 mM NaCl, 0.5% NP 40, 1×Complete EDTA free (Roche) 10 mM Glycerol 2-phosphate, 1 mM NaVO4) and allowed to stand on ice for 20 minutes. Thereafter, the cells were centrifuged at 4° C., 21,130×g for 30 minutes, and the supernatant was used for immunoprecipitation. 50 μL of anti-[…] antibody beads (Wako, 016-22784) or 50 μL of Monoclonal Anti-HA-Agarose (Sigma, A 2095) was used in the immunoprecipitation. The supernatant was mixed with antibody beads lysate, and slowly mixed at 4° C. for 1 hour. After completion of the antigen-antibody reaction, it was washed 3 times with 1 mL of a lysis buffer, and then the protein was eluted with 50 μL 1×SDS sample buffer. The eluted sample was subjected to electrophoresis by SDS-PAGE followed by western blotting or SYPRO Ruby staining. The western blotting was performed as described in paragraph “(5) Western blotting.” The SYPRO Ruby staining was performed using SYPRO Ruby protein gel stain (Life Technologies, S 12000), in accordance with a product manual. […]

DNA-PKcs = biological target: T2, DNA-PKcs (human, UniProt P78527 1-4128); test: anti-FLAG immunoprecipitation from HEK 293 T lysate, SDS-PAGE; band identified by mass spectrometry (Table 1)
T2 construct: Endogenous protein co-precipitated from HEK 293 T lysate and identified by mass spectrometry; also called DNK-PKcs; PRKDC

BIP = biological target: T3, BIP (human, UniProt P11021 19-654); test: as above
T3 construct: Endogenous protein co-precipitated from HEK 293 T lysate; also called GRP78

Measured: binding result

T3 sequence (P11021 19-654 limits assumed): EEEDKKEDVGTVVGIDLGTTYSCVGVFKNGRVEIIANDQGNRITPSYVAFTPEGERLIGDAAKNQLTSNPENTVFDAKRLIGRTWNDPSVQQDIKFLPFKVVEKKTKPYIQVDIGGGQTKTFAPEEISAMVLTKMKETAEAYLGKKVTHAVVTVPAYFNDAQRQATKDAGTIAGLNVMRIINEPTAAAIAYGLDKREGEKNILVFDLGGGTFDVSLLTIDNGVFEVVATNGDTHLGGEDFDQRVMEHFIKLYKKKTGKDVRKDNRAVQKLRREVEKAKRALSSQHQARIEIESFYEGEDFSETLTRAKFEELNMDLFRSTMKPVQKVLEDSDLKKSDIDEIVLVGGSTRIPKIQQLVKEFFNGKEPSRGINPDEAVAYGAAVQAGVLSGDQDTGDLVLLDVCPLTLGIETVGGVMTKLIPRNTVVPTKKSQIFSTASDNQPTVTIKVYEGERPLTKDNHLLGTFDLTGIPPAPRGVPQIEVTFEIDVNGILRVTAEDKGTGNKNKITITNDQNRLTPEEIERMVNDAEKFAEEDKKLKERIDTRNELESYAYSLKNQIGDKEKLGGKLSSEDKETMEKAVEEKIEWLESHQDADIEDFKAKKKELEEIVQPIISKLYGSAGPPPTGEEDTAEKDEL
T2 sequence (P78527 whole entry): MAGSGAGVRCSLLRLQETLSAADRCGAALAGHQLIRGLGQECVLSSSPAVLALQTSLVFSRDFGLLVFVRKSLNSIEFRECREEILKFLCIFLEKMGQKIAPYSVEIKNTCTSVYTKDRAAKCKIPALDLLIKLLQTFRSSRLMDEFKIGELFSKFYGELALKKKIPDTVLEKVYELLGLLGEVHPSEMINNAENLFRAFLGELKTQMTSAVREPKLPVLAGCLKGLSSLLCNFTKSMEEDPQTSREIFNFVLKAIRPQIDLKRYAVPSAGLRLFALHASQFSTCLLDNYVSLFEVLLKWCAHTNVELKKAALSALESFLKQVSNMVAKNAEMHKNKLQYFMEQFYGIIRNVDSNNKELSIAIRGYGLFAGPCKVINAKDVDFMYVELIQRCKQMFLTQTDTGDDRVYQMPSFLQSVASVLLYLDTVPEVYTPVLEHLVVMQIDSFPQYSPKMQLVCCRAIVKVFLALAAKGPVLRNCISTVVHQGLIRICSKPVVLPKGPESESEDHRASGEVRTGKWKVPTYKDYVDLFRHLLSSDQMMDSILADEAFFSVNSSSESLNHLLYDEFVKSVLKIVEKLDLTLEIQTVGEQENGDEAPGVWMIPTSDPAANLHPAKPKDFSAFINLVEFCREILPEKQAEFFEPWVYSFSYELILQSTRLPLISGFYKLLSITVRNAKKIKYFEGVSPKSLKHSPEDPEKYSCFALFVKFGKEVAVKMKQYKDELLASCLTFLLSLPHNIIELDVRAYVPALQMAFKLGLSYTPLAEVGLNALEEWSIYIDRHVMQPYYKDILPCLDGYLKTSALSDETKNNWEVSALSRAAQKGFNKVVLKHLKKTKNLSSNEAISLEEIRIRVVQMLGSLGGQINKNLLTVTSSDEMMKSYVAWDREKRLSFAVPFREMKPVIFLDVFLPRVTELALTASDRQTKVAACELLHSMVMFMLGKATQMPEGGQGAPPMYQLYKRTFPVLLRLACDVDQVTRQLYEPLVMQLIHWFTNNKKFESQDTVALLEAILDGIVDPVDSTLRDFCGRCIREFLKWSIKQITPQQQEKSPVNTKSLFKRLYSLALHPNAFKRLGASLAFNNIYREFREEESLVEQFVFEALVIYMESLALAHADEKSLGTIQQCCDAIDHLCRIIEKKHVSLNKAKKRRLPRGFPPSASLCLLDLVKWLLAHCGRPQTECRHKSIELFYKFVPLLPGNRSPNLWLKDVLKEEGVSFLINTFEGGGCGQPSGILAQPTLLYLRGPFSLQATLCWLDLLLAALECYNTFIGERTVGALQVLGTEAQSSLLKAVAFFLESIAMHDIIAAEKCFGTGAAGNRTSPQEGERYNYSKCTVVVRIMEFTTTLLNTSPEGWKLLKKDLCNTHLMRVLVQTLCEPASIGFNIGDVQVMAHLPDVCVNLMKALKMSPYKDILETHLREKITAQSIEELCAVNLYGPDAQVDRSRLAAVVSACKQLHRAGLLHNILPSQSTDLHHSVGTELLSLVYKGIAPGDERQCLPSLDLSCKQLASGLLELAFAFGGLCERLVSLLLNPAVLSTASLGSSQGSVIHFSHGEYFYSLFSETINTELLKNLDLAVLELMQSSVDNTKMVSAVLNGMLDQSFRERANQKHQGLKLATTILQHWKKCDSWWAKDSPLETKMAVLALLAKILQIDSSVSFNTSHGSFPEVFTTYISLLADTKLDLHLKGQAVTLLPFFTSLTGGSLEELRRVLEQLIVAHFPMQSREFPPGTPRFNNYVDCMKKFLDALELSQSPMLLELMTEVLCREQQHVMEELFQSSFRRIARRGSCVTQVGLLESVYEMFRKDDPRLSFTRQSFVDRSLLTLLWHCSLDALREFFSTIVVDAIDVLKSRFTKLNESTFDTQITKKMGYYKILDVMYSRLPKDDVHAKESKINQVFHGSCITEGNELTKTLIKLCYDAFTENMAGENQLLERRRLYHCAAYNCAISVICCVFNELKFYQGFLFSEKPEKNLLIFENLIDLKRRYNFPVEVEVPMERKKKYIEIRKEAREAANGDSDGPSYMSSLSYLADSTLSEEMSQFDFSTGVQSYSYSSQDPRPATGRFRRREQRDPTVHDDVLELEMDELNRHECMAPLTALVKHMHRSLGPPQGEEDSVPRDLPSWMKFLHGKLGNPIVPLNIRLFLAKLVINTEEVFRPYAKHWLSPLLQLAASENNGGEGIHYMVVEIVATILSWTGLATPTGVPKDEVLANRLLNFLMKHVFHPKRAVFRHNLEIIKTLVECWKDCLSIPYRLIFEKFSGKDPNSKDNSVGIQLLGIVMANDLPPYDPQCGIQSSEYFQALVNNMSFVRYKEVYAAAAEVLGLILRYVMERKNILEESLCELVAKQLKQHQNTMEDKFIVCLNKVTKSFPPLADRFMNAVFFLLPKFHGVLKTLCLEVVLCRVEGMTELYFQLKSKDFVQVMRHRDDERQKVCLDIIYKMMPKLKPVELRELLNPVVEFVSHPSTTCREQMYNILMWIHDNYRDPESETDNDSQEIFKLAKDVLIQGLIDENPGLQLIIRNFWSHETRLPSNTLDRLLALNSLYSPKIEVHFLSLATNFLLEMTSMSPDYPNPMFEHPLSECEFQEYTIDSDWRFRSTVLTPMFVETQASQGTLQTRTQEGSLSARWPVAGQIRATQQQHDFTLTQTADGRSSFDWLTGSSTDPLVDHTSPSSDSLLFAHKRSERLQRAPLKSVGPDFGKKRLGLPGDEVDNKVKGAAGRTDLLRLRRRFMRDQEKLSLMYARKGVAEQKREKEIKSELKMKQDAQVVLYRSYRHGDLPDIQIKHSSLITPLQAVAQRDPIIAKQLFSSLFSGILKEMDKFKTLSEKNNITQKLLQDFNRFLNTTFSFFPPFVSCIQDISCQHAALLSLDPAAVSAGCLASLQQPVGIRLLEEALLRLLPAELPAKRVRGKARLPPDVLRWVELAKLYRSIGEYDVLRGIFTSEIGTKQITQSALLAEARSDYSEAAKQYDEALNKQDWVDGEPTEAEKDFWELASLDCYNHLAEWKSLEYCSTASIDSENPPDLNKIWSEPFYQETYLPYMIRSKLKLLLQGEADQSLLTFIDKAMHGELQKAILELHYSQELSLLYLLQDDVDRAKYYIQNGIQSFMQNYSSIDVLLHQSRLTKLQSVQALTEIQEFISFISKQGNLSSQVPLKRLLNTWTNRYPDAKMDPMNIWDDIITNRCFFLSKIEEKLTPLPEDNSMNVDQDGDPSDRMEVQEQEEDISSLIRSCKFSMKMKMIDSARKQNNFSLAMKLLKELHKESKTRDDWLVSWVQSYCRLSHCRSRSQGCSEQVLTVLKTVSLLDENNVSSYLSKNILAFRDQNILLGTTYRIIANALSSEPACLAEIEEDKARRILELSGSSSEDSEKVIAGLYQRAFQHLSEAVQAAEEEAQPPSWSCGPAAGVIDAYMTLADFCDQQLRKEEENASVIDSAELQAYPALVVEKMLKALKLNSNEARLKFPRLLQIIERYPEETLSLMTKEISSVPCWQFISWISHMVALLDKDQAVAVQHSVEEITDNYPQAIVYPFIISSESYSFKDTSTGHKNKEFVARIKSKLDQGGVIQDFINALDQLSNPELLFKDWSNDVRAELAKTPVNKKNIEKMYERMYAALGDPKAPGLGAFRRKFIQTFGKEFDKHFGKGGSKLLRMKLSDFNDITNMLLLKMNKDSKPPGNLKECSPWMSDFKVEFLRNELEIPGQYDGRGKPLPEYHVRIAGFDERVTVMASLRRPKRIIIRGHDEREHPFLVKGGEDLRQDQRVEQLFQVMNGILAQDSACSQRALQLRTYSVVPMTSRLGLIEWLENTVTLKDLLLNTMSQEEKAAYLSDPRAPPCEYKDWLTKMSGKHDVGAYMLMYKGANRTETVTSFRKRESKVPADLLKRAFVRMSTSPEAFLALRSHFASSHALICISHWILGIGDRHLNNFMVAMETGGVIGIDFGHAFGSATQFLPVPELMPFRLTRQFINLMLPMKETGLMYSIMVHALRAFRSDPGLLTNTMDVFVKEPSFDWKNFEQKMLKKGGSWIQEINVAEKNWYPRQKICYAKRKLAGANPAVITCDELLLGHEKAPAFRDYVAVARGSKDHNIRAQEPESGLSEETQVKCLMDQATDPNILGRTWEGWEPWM

B1: FLAG-tagged uORF44p (protein derived from uORF44, an upstream ORF in the mRNA of ARHGEF9) (other, not shown: small tags and cut ends)
chain: MDSLTEQRLTSPNLPAPHLEHYSVLHCTMTLDVQTVVVFAVIVVLLLVNVILMFFLGTR
notes: Expressed from a pcDNA3 FLAG vector in HEK 293 T cells; also called uORF44 protein; mental activity-related protein
binds: all assays above
